Measurements published in the DeepSol protein solubility set.

Assay: soluble on expression in E. coli; label from the status in PepcDB or PDB records

Sequence | soluble on expression in E. coli
MGSDKIHHHHHHMATPPFHYQHMFPLGPDKTEYYLLTKDYVSVSEFEGKPILKIEKEGLTAMANAAFRDVSFLLRRSHNEQVAKILSDPEASDNDKYVALTFLRNAEVSAKGKLPLCQDTGTAIIHGEKGQQVWTGYCDEEALSLGVYKTYTEENLRYSQNAPLTMYDEVNTKCNLPAQIDLEATEGMEYKFLCVTKGGGSANKTYLYQETKAVLNPATLVPFLVEKMKTLGTAACPPYHIAFVIGGTSAEKNLLTVKLASTHYYDELPTTGNEYGRAFRDVELEKQVLEEAYKIGLGAQFGGKYMAHDVRIIRLPRHGASCPIGLGVSCSADRNIKCKINKDGIWIEKMDDKPGELIPAELREAGEGDVVKIDLNQPMADILKELTKYPVATRLSLNGTIIVGRDIAHAKLKERLDRGEDLPQYIKDHPIYYAGPAKTPEGMACGSMGPTTAGRMDPYVDLFQSHGGSMIMLAKGNRSQQVTDACKKYGGFYLGSIGGPAAILAQNNIKSIECVEYPELGMEAIWKIEVEDFPAFILVDDKGNDFFKQLKPRCLGNCK | not soluble
MGSDKIHHHHHHMIEANQILAKMKNQKINYDKVLRKIISQWERDGERPKILLHSCCAPCSTYTLEFLTQYADIAIYFANPNIHPKSEYLRRAKVQEQFVNDFNNKTGASVKYIEAEYEPHKFMKMAKDKGLTEEPEGGLRCTACFEMRLEIVAKAALEHGYDYFGSAITLSPKKNAQLINELGMDVQNIYNVKYLPSDFKKNKGYERSIEMCNDYNIFRQCYCGCVFAAMKQGIDFKQINKDAQAFLQQF | not soluble
STLKGALSVKFDVKCPADKFFSAFVEDTNRPFEKNGKTEIEAVDLVKKTMTIQMSGSEIQKYFKTLKGSIAVTPIGVGDGSHVVWTFHFEKVHKDIDDPHSIIDESVKYFKKLDEAILNFKE | soluble
MAHAAAVEENQLQSLKDVAKQAPVHRKLDIQEWKTAEGAKVLFVEAHELPMFDLRLTFAAGSSQDAGTPGLSMLTNAMLNEGVPGKDTTAIAAGFEDLGASFSNGSYRDMAVAGLRSLSEADKRTQALKLFEQVIGQPTFPEDALARIKNQVLAGFEYQKQNPGKLAGLELFKRLYGEHPYAHSSDGDEKSVPTISREQLQAFHKKAYAAGNVVIALVGDLSRQEAEAIAAEVSKALPQGPALAKTVQPETPKPGLTHIDFPSEQTHLMLAQLGIDRQDPDYAALYLGNQILGGGGFGTRLMDQVREKRGLTYGIYSGFTAMQARGPFMINFQTRAELSEGALKLVQDIVRDYLANGPTQKELDDAKRELAGSFPLSTASNADIVGQLGAIGFYGLPLDYLESFLKQVEGLSVEQVRTAMAKHLDADAFVIVSAGPSVPQKLEHHHHHH | not soluble
MTTMGEDEAPALPKKSPLPEKIDEADVDDDPDDKVIKIVVVGDGASGKTSICQRFAKESFDKSYHQTLGLDFFSRRITLPHEMQVLVQVWDIGGQSIAGEMIDKYLTGANIVFLVYDVTNSKSFENAVDWLSVVKKNTKSSETPVKLVLMGNKTDLEERRVVSVEAHKNFATSNDMMPTYVSAKTGDTVFLTFRQAVAEVLNVGLSRAEVEADIEIVQGSVIEQPKQSDASYARRSDQSRSTSVCSIT | soluble
MGEQDPSDRLRGDQLKEPNQNGKGSFSQFSSSVRAMVRIRMKYQAIKKRRMEIASATPQIFTSPRSTSPKVFTFDNLHEPVNSNPASPRKRKKKRKGRVLYPTSSLRAVPTKESSRAKNCLYLLCIIVFLQVYNAIENLDDHVLKYDLEGLEKTLKREVFGQQEVAEGLLGHLQDYLSTYVHNKPLVLSFHGPTGVGKSHVGRLLAQHFRSVVGEELVMQYFVLHHCPTDDDIPVCTKSLESHISEMVSQGEEEEKIPVFIFDEVEHMPRQLMDTLRELIQPQNSNKYLNAIYILISNLGHEDITKFVLHNSSIAISGRLSLTQELTPWLRNYLQEHHGLFLDAEYLPFMLLEKSHVMDCFIDEMSREGFYPDRSHVERLAEELSYYIVGEREFSHTGCRQVVAKVNLL | soluble
MSAKFQQETLKSRFAQAKVLVVGDVMLDRYWFGDVSRISPEAPVPVAKIGRIDQRAGGAANVARNIASLGGRAGLLSVTGNDEAADALDALMVQDGVASYLMRDKQIATTVKLRVVARNQQLIRLDFEEHPNCEVLEQIKQKYREILPEYDAIIFSDYGKGGLSHISDMIDWAKHAGKTVLIDPKGDDYEKYVGATLITPNRAELKEVVGSWKNESELTEKAQNLRRHLDLTAVLLTRSEEGMTLFSEGEPIYQPTRAQEVYDVSGAGDTVIAGMGLGLAAGCTMPEAMYLANTAAGVVVAKLGTAVCSFAELIKALSGQSTM | not soluble
MAHHHHHHMNAVKEADVVFLEAYTSFLINSNAEKLAGIYGKPVILADREMVESGAVLDDAKVKKVVLLVVGDVFGATTHSDLIVRCNRQGIESKIVHNASIINAVGCCGLQLYRFGQVISLCFWTETWRPDSWYERLQSNRAAGIHTLVLLDIKVKEISDENLARGRKIYEPPRYMTIRQAIEQILEVEGYKQGGAVAADGSTFAVGLARVGSESQQVVAGTMKDLLSVDFGAPLHSLVIAGDVHDCEQEHVDLFRMAGQ | not soluble
MSSVTAPRLDRATMGRKGGQKAAERWKTDPESDYATAQRETLAAANKRGARQGTGTRGRVLAVYSQTLVDTGEVPTARQIAGEIGITKRMVNIHLKELRDAGLVEQGLRDIWACGRNLGGFPV | not soluble
MGSDKIHHHHHHMASKNFVLDTNVLIENPRCIAALRNGEENRIHVPWTVLAELDGLQRDPRIGHVVGQAINALVGDEAVTFLPPLADDVAPSPGTIGDDRILGEIASSALESPILITNDRILQLKARVRGIPVEGYRDSVPFQSESQRYTGFVMDGEDPVPNCFRWENGQPVFHGPDGPRAVTWQHEVWKVAPRSVHQNLAFELMLHPGIDIVSIQSEAGYGKTFLALAAALHLVFERKDTPYRKIYLVKPVVEIGARMGFLPGDIEEKMHPYIRYVQDLLLKLHDLRPANRVFQSVEAGNMKLNPKRFEIQPIAYVRGMNLENAVVIIDEMQNLSRNEARALLTRMGEGVKCFCLGDTRQVDNQYLNESNNGLNWVVKKLKGFRNYAHIVLKGERSRGPITDIVLRSRL | not soluble
MESEGEAQMFADCDQKTVKQTAAKPMSSKKKQDFQALASDRQLAIVFSSMIQVSEAFDYGIGNPEYFVRISMTEEEADIAKENLESIKLENKSLKKQNSEAVALLQKTRNQDMSRIEIQQLTENRAGFFETADSMIKLINQVTPKNAKKTRQQLDQLKKQYTQYSAESIKIMNSIVKKQKADKASFERHLEALLQKQPGQQVRSELYLEHHHHHH | soluble
MSQLTEFISCIPVVNEEQNEEDERGLCKIQIEDGAMLETLDENSLSGLRIEKMLVSEGTGIFSKSSFGINDLRIFTGENIDEESKKYVWYELLKMLTGHKVYIASLDEKVVFTKWTCRMQDDEVWKVVMELESSAIIRKIAELTLHPVKKGEIDLFEMADKLYKDICCVNDSYRNIKESDSSNRNRVEQLARERELLDKLLETRDERTRAMMVTLLNEKKKKIRELHEILRQNNIKLSDDDVLDSA | soluble
MKISVITINYNNGEQLEATIQSVVSNVTVLRELLGEKAEYIVIDGGSVDCSVSVLQKYSEYISYWISEKDKGIYHAMNKGISVAQGEYCFFLNSGDTFYEDDTLKKALLFLKEDFVCGNAVLKYAGGINEWSAPEIVNTLFFMQRFSVCHQSLFIRTELLKSHPYNETLMIVADYEQMFYEIAVNHRSYKKIDLTICYYGCDGVSSDHEKADAEKRSVINEFRYLGYIEPDELWNVVSKLKIGTRKYRLLLSLAKCLTSSPKYWVRLEHHHHHH | soluble
MSLRERNQVIPVLPPQERPRPTVVFDCEDFLVKKRFSFFNLDFLVTGRAFADLFLFHAAHIYELVHVSGSPGSFSRLLLHRIDPYGCISYKVYCKDKKTFSSEHLNRPLQRVMVVSTRENEYHKDFDGNTIKLERWSGDPEHGLLDLLNFLHSLHFMGIKDFRGTLRSYLGEGHHHHHH | not soluble
MKTRVVLILALSVCIEAASEVIRARAYIFKAEAGKIPTELIGTIDFDQSGSFLKLNGSVSGLAAGKHGFHIHEKGDTGNGCLSAGGHYNPHKLSHGAPDDSNRHIGDLGNIESPASGDTLISVSDSLASLSGQYSIIGRSVVIHEKTDDLGRGTSDQSKTTGNAGSRLACGTIGTV | not soluble
GSHMDKTFCVVVQNRIKEGYRRAGFSFHLGDNSLAAVSESQLAQLKADPRLVVQITETGSQEGGEGLSKEPAGSDEQKQLRADPPSTDLNTFTVEQLKAQLTERGITFKQSATKAELIALFAPADGEKSEA | soluble
MRGSHHHHHHTDPALRAARLFTLSESKYYLMALDAGTGSIRAVIFDLEGNQIAVGQAEWRHLAVPDVPGSMEFDLNKNWQLACECMRQALHNAGIAPEYIAAVSACSMREGIVLYNNEGAPIWACANVDARAAREVSELKELHNNTFENEVYRATGQTLALSAIPRLLWLAHHRSDIYRQASTITMISDWLAYMLSGELAVDPSNAGTTGLLDLTTRDWKPALLDMAGLRADILSPVKETGTLLGVVSSQAAELCGLKAGTPVVVGGGDVQLGCLGLGVVRPAQTAVLGGTFWQQVVNLAAPVTDPEMNVRVNPHVIPGMVQAESISFFTGLTMRWFRDAFCAEEKLIAERLGIDTYTLLEEMASRVPPGSWGVMPIFSDRMRFKTWYHAAPSFINLSIDPDKCNKATLFRALEENAAIVSACNLQQIADFSNIHPSSLVFAGGGSKGKLWSQILADVSGLPVNIPVVKEATALGCAIAAGVGAGIFSSMAETGERLVRWERTHTPDPEKHELYQDSRDKWQAVYQDQLGLVDHGLTTSLWKAPGLGLCGR | soluble
MLAERLVNDYDVEVLTTCVKNYVTGDNEYPEGEEILNGVLVRRFYSDPVEPDLHKSYVRQAAPAKKWRHFLYRCRLLKPLSYVKPIWHYKEQEEIKALNSQVFYSSSMYAFIRENKASYRAFIPLSFFPHTYYTALYAPEKTILIPTMHNNGSSFRSIITSVFSEVAYIGFNIEAEQKLVENIVGKPLAAHGIISVGIEKTKAADWEQTKVKYNLPEDYLLYVGRIDAIKLNNIVDYFLSYKKKYVGSRLKLVLVGGIFGKTVEHPDIIYTGFVDDAEKVAIQLNAKVIVNPSRYESLSLILLETMSEGKAMLVNGRCNVLREHCEKSNYAALYYMNRRDFMRKLHNLENSETLRQQMGEKGRHYVQENYNWEMIIGRMKNVIQMLS | not soluble
MGSDKIHHHHHHMITVVGGTFSKLHKGHKALLEKAIETGNEIVIGLTSDEYVKRNKVYPAIPYKERYRNLYNYMVKKTNKFRIRPIDDRNGNAPYERDYEIIVVSPETYQRSLKINEIRIQNGLPPLKIIRVPYVLAEDLFPISSTRIINGEIDGNGRRLKPVKVAIATNNSAKLKATNDFFHKLMKNFDVIQNTDYKLETQQPFGEVTMNMATKRAMQSLGDNDYAIGIESGIVYERFSRKYFDFHYCVVIDRFGNVTRGSSSGFEVPDRIIDLIKRDMSFSQAYGKVIDTNGIDDSTGIVGKISNGRVRRYDLIMECIRNAFIPRFDPDFYDTTYTPP | not soluble
MVPEVIEIDGKQWRLIWHDEFEGSEVNKEYWTFEKGNGIAYGIPGWGNGELEYYTENNTYIVNGTLVIEARKEIITDPNEGTFLYTSSRLKTEGKVEFSPPVVVEARIKLPKGKGLWPAFWMLGSNIREVGWPNCGEIDIMEFLGHEPRTIHGTVHGPGYSGSKGITRAYTLPEGVPDFTEDFHVFGIVWYPDKIKWYVDGTFYHEVTKEQVEAMGYEWVFDKPFYIILNLAVGGYWPGNPDATTPFPAKMVVDYVRVYSFVSG | soluble
